Experimental data: publication PMC12197088

Key:
[1] = target: nucleolin (NCL), cell surface of MCF-7 (UniProt P19338); assay: flow cytometry; details: intact MCF-7 cells (apparent cellular Kd); Dulbecco's PBS with CaCl2 and MgCl2, 4.5 g/L glucose, 5 mM MgCl2, 0.1 mg/mL yeast tRNA, 1 mg/mL BSA; on ice 30 min; pH not stated
[2] = target: nucleolin (NCL), cell surface of MCF-7;IGFIIR, cell surface of MCF-7 (UniProt P19338+P11717); assay: flow cytometry; details: intact MCF-7 cells (apparent cellular Kd); Dulbecco's PBS with CaCl2 and MgCl2, 4.5 g/L glucose, 5 mM MgCl2, 0.1 mg/mL yeast tRNA, 1 mg/mL BSA; on ice 30 min; pH not stated
Sequence of nucleolin (NCL), cell surface of MCF-7;IGFIIR, cell surface of MCF-7 (P19338 2-710, chain 1 of 2): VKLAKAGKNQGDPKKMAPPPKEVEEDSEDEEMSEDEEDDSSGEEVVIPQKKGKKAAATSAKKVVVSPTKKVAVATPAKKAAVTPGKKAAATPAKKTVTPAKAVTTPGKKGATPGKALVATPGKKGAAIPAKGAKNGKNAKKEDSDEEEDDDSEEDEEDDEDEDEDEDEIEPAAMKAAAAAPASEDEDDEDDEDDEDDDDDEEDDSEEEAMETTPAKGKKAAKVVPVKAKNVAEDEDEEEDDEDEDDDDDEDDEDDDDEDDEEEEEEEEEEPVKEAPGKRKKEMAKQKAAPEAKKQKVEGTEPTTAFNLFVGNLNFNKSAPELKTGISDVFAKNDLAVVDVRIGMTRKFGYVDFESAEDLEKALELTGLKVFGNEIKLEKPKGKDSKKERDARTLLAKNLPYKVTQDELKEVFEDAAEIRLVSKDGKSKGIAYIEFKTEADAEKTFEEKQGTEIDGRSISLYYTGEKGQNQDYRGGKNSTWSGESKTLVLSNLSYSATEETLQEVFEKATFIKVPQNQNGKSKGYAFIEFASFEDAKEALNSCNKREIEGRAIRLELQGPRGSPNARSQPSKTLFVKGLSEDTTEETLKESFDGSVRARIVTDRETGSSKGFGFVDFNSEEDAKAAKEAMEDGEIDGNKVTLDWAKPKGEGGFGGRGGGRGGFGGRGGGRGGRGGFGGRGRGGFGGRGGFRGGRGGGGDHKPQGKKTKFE
Sequence of nucleolin (NCL), cell surface of MCF-7;IGFIIR, cell surface of MCF-7 (P11717 41-2491, chain 2 of 2): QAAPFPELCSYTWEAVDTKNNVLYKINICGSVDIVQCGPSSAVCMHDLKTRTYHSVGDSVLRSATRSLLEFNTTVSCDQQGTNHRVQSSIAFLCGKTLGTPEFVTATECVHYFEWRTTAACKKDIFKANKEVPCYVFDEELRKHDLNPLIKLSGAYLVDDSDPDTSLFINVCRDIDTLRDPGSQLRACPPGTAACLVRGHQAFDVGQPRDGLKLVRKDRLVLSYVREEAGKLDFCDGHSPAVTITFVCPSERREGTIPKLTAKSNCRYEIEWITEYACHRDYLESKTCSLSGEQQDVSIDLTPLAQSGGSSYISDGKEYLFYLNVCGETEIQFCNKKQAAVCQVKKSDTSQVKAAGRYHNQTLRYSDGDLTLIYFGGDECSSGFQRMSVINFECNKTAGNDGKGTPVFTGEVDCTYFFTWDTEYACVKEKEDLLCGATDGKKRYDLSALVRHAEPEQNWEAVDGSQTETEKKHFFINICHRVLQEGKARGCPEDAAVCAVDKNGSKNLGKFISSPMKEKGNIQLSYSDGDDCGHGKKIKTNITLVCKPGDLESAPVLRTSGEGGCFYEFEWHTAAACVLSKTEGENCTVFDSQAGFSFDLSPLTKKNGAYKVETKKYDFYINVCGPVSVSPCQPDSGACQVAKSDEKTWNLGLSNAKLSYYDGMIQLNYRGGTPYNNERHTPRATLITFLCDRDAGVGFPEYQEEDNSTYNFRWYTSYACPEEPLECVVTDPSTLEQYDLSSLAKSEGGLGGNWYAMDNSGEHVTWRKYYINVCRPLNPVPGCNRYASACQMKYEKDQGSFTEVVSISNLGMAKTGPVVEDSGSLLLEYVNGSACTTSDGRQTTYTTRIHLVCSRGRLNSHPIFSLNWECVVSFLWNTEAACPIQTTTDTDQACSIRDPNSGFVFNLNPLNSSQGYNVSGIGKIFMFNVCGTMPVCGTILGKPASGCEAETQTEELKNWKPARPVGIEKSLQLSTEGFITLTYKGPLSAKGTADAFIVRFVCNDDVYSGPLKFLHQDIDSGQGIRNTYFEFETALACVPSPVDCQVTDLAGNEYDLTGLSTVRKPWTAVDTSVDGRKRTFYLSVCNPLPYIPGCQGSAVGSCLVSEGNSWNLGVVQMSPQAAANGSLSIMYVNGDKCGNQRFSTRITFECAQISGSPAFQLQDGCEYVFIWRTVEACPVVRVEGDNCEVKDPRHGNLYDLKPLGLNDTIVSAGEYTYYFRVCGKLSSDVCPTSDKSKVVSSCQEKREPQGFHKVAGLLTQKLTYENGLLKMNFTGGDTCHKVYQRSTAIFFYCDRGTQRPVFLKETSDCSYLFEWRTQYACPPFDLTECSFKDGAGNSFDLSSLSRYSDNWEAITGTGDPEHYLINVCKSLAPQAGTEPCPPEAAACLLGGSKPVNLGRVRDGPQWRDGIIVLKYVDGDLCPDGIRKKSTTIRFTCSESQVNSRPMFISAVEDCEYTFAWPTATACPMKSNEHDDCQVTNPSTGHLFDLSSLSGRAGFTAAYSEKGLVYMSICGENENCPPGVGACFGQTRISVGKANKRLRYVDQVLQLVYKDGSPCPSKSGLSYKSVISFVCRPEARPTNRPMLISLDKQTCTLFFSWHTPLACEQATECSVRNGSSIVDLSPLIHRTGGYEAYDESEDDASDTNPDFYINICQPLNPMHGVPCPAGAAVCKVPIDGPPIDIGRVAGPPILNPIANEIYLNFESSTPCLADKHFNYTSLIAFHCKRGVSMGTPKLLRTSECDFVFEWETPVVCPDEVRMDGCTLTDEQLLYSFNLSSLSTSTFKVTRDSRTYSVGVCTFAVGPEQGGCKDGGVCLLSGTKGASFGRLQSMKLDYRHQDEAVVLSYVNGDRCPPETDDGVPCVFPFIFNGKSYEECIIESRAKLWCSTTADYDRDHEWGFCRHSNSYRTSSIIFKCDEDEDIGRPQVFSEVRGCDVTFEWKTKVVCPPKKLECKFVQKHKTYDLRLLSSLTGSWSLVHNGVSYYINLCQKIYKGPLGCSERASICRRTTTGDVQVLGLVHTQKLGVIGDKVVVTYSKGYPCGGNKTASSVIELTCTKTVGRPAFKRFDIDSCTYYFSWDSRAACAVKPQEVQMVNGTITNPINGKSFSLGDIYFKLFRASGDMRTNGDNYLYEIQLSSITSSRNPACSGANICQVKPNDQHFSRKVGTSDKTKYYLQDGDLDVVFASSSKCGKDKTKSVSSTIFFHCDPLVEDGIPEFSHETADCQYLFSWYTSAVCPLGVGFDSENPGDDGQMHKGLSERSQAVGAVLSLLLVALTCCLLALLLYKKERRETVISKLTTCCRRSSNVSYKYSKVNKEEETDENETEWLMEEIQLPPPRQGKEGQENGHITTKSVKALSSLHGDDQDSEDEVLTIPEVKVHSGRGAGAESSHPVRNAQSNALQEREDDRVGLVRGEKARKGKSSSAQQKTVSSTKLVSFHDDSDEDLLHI

Sequence of nucleolin (NCL), cell surface of MCF-7 (P19338 2-710): as the sequence (P19338 2-710, chain 1 of 2) above

Sequence	Kd [1] [nM]	Kd [2] [nM]
GGTGGTGGTGGTTGTGGTGGTGGTGG [AS1411 (NCL aptamer)]	137	
TTTTTTTTTTTTTTTGGGCGCGTAGATGACGAGCAGTCCTAACATCGTTTAGGAC / AAAAAAAAAAAAAAAGGTGGTGGTGGTTGTGGTGGTGGTGG [Mo-AS (monovalent NCL/IGFIIR chimera)]		518
